Measured values taken from the DeepSol protein solubility set.

Assay: soluble on expression in E. coli; label from the status in PepcDB or PDB records

Sequence | soluble on expression in E. coli
MAHHHHHHMWCTRLCREEGLFRFLRNLFEVLDFVTERCRRCLDTSSCLLLLCASPLSSCSIGGPHTRGCFNEILHRLSRGAQQPAHRRQSATSSHPRTPWRLHRFNDERVCVWGGNPPPQSTTGRHRSLCTPFSLSHTPSTAWAPLLPADKHHMQASPVLAGAAVRRTATASVGSEPRTNLPFLINVVKKAQKSANTVVASTPALSSMSSTKEPPIQAAAFKPYPLLSPGEVKQAAGSSLLYKDDVCVLVNDAFPKSMVHCLVMPLDLRLQSLNALTKKDAPLLRHMLHVGDEYVRYLKTAVPHTYTARRFIAGFHALPSLPMLHMHVLSTDLDSPCLKNKKHYNSFATFFFLTGDRVLDDLERHGRVTLNQDVTRLRQMEEQDMKCLWCGTALPSVPAMKSHIQCCPQNKAVEKSS | not soluble
MAHHHHHHMWRRGVAAVPLPLWQGKLLQLVHHRALSTDTTGDEATAWSRAMEAKYGTGTYKLFRPLYKDLSDEMRLEAYTKPPAPMQGWSVHHDEAVNLAIFSHKGDSRSRTARVVAYSPITVENPESLNPLLYFMDWYPINVLMERNGVVVHFSIASTEGGMHMRNVRVYKAQDELSPNDPEKQDLPNRDSECERLMSTTDDAAWVRHNLYYDGPCLWHLELDMLNELYDVMQDHGVTLDWVRWVAEWVHYLEHVSYVRWALGVLQELIPVDERGPEDDFLTFEEKEALATPPEEWLEAHYI | not soluble
MAHHHHHHMYDSRSSGVHDVAPRDGVDFMYEGPQQVLPGAHPLPLFHPDNSVTRPPVSPYLPSPQRPHPYFTTELPELPHFQTTRPIVYTVGTMKQRIVAPVFDLANNVTHTRELDPFIFGFYPETEEMAKNLSYWLVRCQNFSSKWDYENREIWRKAKKNWPNTGMGMARVGDRKNHAHPWGAHSKPVKPWNLLMPTMDVKTWSKSNRMLVTLKMLQGKLQIVERLTLPEPTQEAYLQLCRTMGWDVRHKGGGALFMDGGSRLTPSSEYDRAFFFGSFFNGRNKLVRPTLLCDEPYDYNRTSSKARTKGPKGQKNPIPINRFNAYDALTHDTLIITEGALLQLEDEMYTHKLAMLPPHIRAQLPERGFLDSEVLGDVPPALQTVQMEAAARTEEAEQAMYAPYYDNPYHPWQDEGEASYAVDAVEGTVQRYIKSRKTSWAMLS | not soluble
MAHHHHHHMYSFSLASNRKRAIPNASGLAPPAAAHVIRAPSELKPHQRLPQPLNEAADDAADDDVMQVSNARFGWHPAHAHAPTSSLYSVRPPAEQLVHVHNLNAYAGLRDAADWSVEVQREREQKKRRALAQHEAVKLEEQRHRDAHEEQTKKEMQQRRLERQQERAELREADAMADFQERNTQFLQNQLWLMQLGSYVKQTDAQHKAHVREELHKSSSSRNHLDVDHASTTCWTGTKARGHHASAPSTEIDLRQAAEATEEAYVRLSLAYRNEAQRSRAAAAILHPGELTGKGRSRLQAIRPAGAFASPTSPSAPSQAATAVSTPSHSPAASPAPAAVTEAAAKVSAPFHTAPPMFTHTSTENMGQHANAIPYTYIPEYFDAPSAAATTGKVPAPHRAGESPEQQETGAVMPLPLSPVPVSRDVTGALQARYYPWALYSAATVRKSMLPPLPPPREASLPVRRWGAAELRDSMFGHCILEDGTIQDQCERKKVCAAYLSYTTLPRDNATATSNAAVEPQEPLHFGKRMDIWL | not soluble
MAHHHHHHSLNTNLKPKLQRFASATAFACPICQENLTLLETNFKCCNRHSFDLAKFGYVNLAPQIKQSANYDKENFQNRQQILEAGFYQAILDAVSDLLASSKTTTTILDIGCGEGFYSRKLQESHSEKTFYAFDISKDSVQIAAKSEPNWAVNWFVGDLARLPIKDASMDILLDIFSPANYGEFRRVLSKDGILIKVIPTENHLKEIRQRVQDQLTNKEYSNQDIKEHFQEHFTILSSQTASLTKTITAEQLQALLSMTPLLFHVDQSKIDWSQLTEITIEAEILVGKAFEG | soluble
MAHHHHHHSLTQQYLTVTALTKYLKRKFDADPYLGRVYLTGEISNFRFRANAHQYFSLKDDHAKISAIMFKSAFQKLKFQPKEGMKVMVVGRISLYENSGSYQIYIEHMEPDGVGALYQALAELREKLGKEGLFEGPKQQLPRYPKRIAVVTSPSGAVIRDIITTVKRRYPIAQLVLFPTLVQGEQAADDIVRNIQRADAQSDFDTMIIGRGGGSIEDLWPFNEEKVARAIHAATTPIISSVGHETDVTIADMVADVRAATPTAAAELAVPVLNEELLRISERRSRLEQSFLYLLQQRTERFQRLQNSYVFKQPERLYEGQTIKLDRMTQRLFQAMTTIHHQKQRQAQGIIAQLQQQTPKGQLRESQQQLAFLQRNLQTQMTQLFLNKQKQFTSAVQQLDLLSPLKIMGRGYSYTTKEDRVVKTVTELQPADQLTIHYADGTVQANVETITAKKEEFEG | soluble
MAHIVIVGAGLGGLPTAYELRHILPKQHQVTVISETPYFTFIPSLPWVAMGLTSLESIQVSLQQRLKQKGINWILGRVDYLNPQNQKISLGEQSISYDYLIIATGAELALDAVAGLGPDGYTQSVCNPHHAIKAFQAWQNFLLAPGPLVVGALPKTSCLGPAYEFTLLADYVLRKQGLREQVSITFVTPEPYAGHLGIGGMANSAELVTKFMAERGVEVIENVAVTAIEANQIHLGNGRVLPFAYSMLLPPFRGPRFVRQVPGLSNQDGFIPVLPTYRHPEYASIYAVGVVVEIKPSEVTPLPLGVPKTGQMTEAMGMAVAHNIAIELGVFSAPPVTPTLDAICFADFGNSGILFLANPVLPDLATGKRRRAVALSGAWVTWAKAAFERYFLAKMRFGTAVPWFEKLALKLLGLSLVAPLAVKSSRNISQENYLEHHHHHH | not soluble
MAHMNLLSVTTGDGGLSRYLEEVRRFPMLEPQEEYMLAQRYRKHNDLKAAHKLVTSHLRLVAKIAVGYRGYGLPIGEVISEGNVGLMKAVKRFEPERGFRLATYAIWWIKASIQEYVLRSWSLVKMGTTANQKRLFFNLRKLKSRLQALDNGDLNAEQVKEIAIQLNVTEDEVVSMNRRLGGDTSLNAPLRTKEGENSEWQDWLVDDSNNQEQTLIEQNELENRRSMLTNALDNLNEREKRIFKARRLSDIPLTLEELSSEFNISRERVRQIEMRAFEKIQNSIKASALSQNQV | not soluble
MAHPPRLNDDKPVIWTVSVTRLFELFRDISLEFDHLANITPIQLGFEKAVTYIRKKLANERCDAIIAAGSNGAYLKSRLSVPVILIKPSGYDVLQALAKAGKLTSSIGVVTYQETIPALVAFQKTFNLRLDQRSYITEEDARGQINELKANGTEAVVGAGLITDLAEEAGMTGIFIYSAATVRQAFSDALDMTRMSLRHNTHDATRNALRTRYVLGDMLGQSPQMEQVRQTILLYARSSAAVLIEGETGTGKELAAQAIHREYFARHDARQGKKSHPFVAVNCGAIAESLLEAELFGYEEGAFTGSRRGGRAGLFEIAHGGTLFLDEIGEMPLPLQTRLLRVLEEKEVTRVGGHQPVPVDVRVISATHCNLEEDMQQGRFRRDLFYRLSILRLQLPPLRERVADILPLAESFLKVSLAALSAPFSAALRQGLQASETVLLHYDWPGNIRELRNMMERLALFLSVEPTPDLTPQFMQLLLPELARESAKTPAPRLLTPQQALEKFNGDKTAAANYLGISRTTFWRRLKS | not soluble
MAHSGDNHSSEFCMLRSLSASIGADPLLVQGAGGNTSIKQAGVLWIKASGTWLKNARDDEIMVPVALAPLLDAVSHRSPAAEAAGQFTLADLNPRQLRPSIETTVHALLPQKIVVHVHCVETISIAVQANAEALLEGRLRGLDWAFVPYRRPGLPLAQAIAERLKPATNVLVLGNHGLVVAADTVAEAALLLQRVTGLLARQPRPAPPPDLDALLRLAAGSDYRLPASTAAHAVATDLASCRIAASGSLYPDHVIFLGVGSVIAGPGENAAAVVARTAAAPTSILFPGKGVLMRREANAGAEAMARCLADVVARVDGAARVNYLSPKENAELLNWDAEKYRQQLNREGATLQLEHHHHHH | not soluble
MAIWQGASRRLSTGAKVWRAAKKHKREMGRPAAETQVSDKIKRKIVRCRGANLKVKLEKTNYANVFDQANKVCKKVVVTNVIDNKANKHYIRRNVMTKGAIIETEMGKAKVTSRPGQDGVVNAILLTELEHHHHHH | soluble
MAKAFEEQRRSPDLEALPFEDRIGLLVDREAAERDTRRLTTRLKIAALRQTACVEDVDLRTPRGIDRAVFAKLVEGRWIDRHENLLVTGATGLGKSWLACALGHKACRDNRSVLYHRVPRLFEALALARGDGRYARLLKSLGRAQLLILDDWGLSVLTAAERRDLLEILEDRHGRASTIVTRQLPVDTWHGAIGDPTVADAILDRLVHNAHRLQLTGESMRKRSAKTITLDGQPEHAAALEHHHHHH | not soluble
